Columns and labels:
[1] = biological target: human PCSK9 (wild-type) (human, UniProt Q8NBP7 31-692, biotinylated in the ELISA formats (sites not given); untagged and unlabelled in Biacore/KinExA); test: cell-based or functional assay
[2] = biological target: human PCSK9 D374Y mutant (human, UniProt Q8NBP7 31-692, biotinylated in the LDLR binding ELISAs (sites not given)); test: cell-based or functional assay

B1: 11F1 anti-PCSK9 antibody (antibody, V domains shown)
VH: EVQLVESGGGLVQPGGSLRLSCAASGFTFSNYWMSWVRQAPGKGLEWVASIKQDGSEKYYVDSVKGRFAISRDNAKNSLFLQMNSLRAEDTAVYYCARDLVLMVYDIDYYYYGMDVWGQGTTVTVSS
VL: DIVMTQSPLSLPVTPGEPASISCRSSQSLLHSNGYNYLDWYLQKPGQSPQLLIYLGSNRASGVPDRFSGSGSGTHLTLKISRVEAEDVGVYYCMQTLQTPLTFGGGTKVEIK
EC50, block of WT PCSK9-mediated decrease in LDL uptake in HepG2 cells (BODIPY-LDL) [1]: 124 nM
EC50, block of D374Y PCSK9-mediated decrease of LDL uptake in HepG2 cells (BODIPY-LDL) [2]: 35.3 nM
